Legend:
[1] = biological target: TLR5 (endogenous, on Jurkat JE6-1 NF-κB::eGFP reporter cells) (human (endogenous in Jurkat JE6-1)) (UniProt O60602)
[2] = biological target: TLR5 (endogenous, on Jurkat JE6-1 NF-κB::eGFP reporter cells) (human (endogenous in Jurkat JE6-1)) (UniProt O60602); remark: listed apart in the source

Chain of UniProt O60602 (O60602 21-858): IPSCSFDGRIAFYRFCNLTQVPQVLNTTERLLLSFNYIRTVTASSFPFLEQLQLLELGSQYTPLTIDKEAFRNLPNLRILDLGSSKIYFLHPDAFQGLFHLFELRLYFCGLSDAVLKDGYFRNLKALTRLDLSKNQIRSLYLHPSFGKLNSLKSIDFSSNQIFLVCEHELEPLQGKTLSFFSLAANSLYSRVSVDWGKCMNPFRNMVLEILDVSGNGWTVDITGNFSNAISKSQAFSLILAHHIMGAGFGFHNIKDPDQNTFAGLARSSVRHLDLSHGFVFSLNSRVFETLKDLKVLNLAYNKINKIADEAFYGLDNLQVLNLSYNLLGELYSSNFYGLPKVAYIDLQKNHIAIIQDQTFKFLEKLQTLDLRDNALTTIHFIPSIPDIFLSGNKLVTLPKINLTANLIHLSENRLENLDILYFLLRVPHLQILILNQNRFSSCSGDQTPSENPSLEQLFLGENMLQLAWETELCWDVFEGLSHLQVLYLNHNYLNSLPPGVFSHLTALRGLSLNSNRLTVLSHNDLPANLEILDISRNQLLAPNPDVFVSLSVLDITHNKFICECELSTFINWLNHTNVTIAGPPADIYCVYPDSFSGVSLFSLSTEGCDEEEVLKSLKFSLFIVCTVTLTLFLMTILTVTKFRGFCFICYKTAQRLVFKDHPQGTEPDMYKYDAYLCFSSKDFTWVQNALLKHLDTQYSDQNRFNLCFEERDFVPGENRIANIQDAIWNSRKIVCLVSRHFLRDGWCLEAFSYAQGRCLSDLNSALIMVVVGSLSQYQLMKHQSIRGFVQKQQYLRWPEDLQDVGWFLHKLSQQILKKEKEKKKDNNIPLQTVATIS

For “flagellin purified from S. typhimurium (Fla-ST standard and Fla-ST ultrapure) (from UniProt P06179 1-495) (ligand)”, the NF-κB::eGFP expression in Jurkat JE6-1 reporter cells (endogenous TLR5), flagellin titrated, 24 h, flow cytometry; lowest concentration giving detectable eGFP [1] was less than 100 pg/mL and the limit of detection (concentration giving a 1.5-fold increase of eGFP) in JE6-1 TLR5 NF-κB::eGFP reporter cells, flagellin titrated [2] was 10 pg/mL.
